One assay addresses T1, MLL3_(PHD2/3) D372N (human, UniProt Q8NEZ4 342-439, D372N).
T1 sequence: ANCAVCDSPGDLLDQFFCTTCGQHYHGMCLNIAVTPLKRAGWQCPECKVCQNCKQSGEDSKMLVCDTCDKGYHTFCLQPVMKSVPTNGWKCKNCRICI

For the next assay, the target named is T2, MLL3_(PHD2/3) E387Q (human, UniProt Q8NEZ4 342-439, E387Q).
T2 sequence: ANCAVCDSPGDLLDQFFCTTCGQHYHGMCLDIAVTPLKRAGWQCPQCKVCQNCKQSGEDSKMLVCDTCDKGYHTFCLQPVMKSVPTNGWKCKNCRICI

Assay [1] has as its target T3, PHD2 and PHD3 fingers of human MLL3 (aa 342-439) (human, UniProt Q8NEZ4 342-439).
T3 construct: PHD2 and PHD3 fingers of human MLL3 (KMT2C), aa 342-439; 15N-labelled for NMR titrations; also used unlabelled as the titrant against MLL3 PHD4; also called MLL3_(PHD2/3); MLL3 PHD2/3; source: E. coli BL21-CodonPlus, purified (glutathione agarose, PreScission cleavage; unlabeled proteins also SEC)
T3 sequence (looked up): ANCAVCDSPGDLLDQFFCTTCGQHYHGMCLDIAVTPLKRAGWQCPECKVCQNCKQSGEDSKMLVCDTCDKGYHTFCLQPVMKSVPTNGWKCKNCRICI
The assay is described as follows: other fluorescence titration; tryptophan fluorescence, 25 °C; 1.0 µM MLL4 PHD2/3 or MLL3 PHD2/3 with increasing peptide; excitation 295 nm; 20 mM Tris pH 7.2, 150 mM NaCl, 1 mM TCEP, 0.02% Tween20; average of three measurements. The settings on record: both partners purified.

The target in a further assay is T4, MLL4_(PHD2/3) D257K (human, UniProt O14686 227-324, D257K).
T4 construct: human MLL4 (KMT2D), aa 227-324; source: E. coli BL21-CodonPlus, purified as WT
T4 sequence (looked up): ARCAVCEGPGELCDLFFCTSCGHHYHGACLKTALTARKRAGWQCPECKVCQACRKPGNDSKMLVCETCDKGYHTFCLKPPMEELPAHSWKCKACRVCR
The assay is described as above. The settings on record: both partners purified.

The next assay concerns the target T5, MLL4_(PHD2/3) E272K (human, UniProt O14686 227-324, E272K).
T5 construct: human MLL4 (KMT2D), aa 227-324; E272K is said to be found in cancers (Cosmic); source: E. coli BL21-CodonPlus, purified as WT
T5 sequence (looked up): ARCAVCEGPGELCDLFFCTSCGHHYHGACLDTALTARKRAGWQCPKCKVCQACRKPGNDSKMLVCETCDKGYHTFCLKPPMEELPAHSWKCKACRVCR
The assay is described as above. The settings on record: both partners purified.

For the next assay, the target named is T6, MLL4_(PHD2/3) E292K (human, UniProt O14686 227-324, E292K).
T6 construct: human MLL4 (KMT2D), aa 227-324; E292K is said to be found in cancers (Cosmic); source: E. coli BL21-CodonPlus, purified as WT
T6 sequence (looked up): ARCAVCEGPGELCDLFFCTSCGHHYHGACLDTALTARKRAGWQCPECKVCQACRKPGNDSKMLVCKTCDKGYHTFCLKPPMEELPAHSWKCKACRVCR
The description is as above. The settings on record: both partners purified.

The target in the next assay is T7, MLL4_(PHD2/3) S286A (human, UniProt O14686 227-324, S286A).
T7 construct: human MLL4 (KMT2D), aa 227-324; source: E. coli BL21-CodonPlus, purified as WT
T7 sequence (looked up): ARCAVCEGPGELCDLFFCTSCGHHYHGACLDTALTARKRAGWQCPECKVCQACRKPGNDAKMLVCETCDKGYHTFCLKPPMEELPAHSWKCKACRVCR
The description is as above. Particulars: both partners purified.

The target in a further assay is T8, MLL4_(PHD2/3) S314A (human, UniProt O14686 227-324, S314A).
T8 construct: human MLL4 (KMT2D), aa 227-324; source: E. coli BL21-CodonPlus, purified as WT
T8 sequence (looked up): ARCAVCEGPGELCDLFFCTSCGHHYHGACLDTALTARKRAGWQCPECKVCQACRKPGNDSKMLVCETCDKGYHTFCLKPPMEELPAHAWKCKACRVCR
The assay is described as above. The settings on record: both partners purified.

The target in assay [2] is T9, PHD2 and PHD3 fingers of human MLL4 (aa 227-324) (human, UniProt O14686 227-324).
T9 construct: PHD2 and PHD3 fingers of human MLL4 (KMT2D), aa 227-324; also called MLL4_(PHD2/3); MLL4 PHD2/3; source: E. coli BL21-CodonPlus, purified (glutathione agarose, PreScission cleavage; unlabeled proteins also SEC)
T9 sequence (looked up): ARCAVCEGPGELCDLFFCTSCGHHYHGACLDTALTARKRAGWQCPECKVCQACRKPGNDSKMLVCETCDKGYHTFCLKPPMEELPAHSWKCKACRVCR
The description is as above. Particulars: both partners purified.

B1: ASXL2 peptide (residues 650-670 of ASXL2) (peptide, UniProt Q76L83 650-670, looked up)
peptide: NRTGARTLADIKAKAQLVKAQ
notes: also called ASXL2 (aa 650-670); MBH of ASXL2; source: synthetic peptide (SynPeptide)
With B1, the Kd (in general, the equilibrium constant for the complex coming apart) in the assay with MLL3_(PHD2/3) D372N came out at 9 µM; with MLL3_(PHD2/3) E387Q it was 6 µM; in [1], 1.4 µM; in the assay with MLL4_(PHD2/3) D257K it was 27 µM; with MLL4_(PHD2/3) E272K, 28 µM; in the assay with MLL4_(PHD2/3) S286A, 0.8 µM. Further, the figures for the dissociation constant Kd (with MLL4_(PHD2/3) S314A; in assay [2]) were 0.8 µM and 0.7 µM, respectively. The “fold reduction in binding against wild type MLL4_(PHD2/3)” value with MLL4_(PHD2/3) E292K was approximately 14 fold.

These data come from publication PMC11161652, “ASXLs binding to the PHD2/3 fingers of MLL4 provides a mechanism for the recruitment of BAP1 to active enhancers” (Nature Communications, 2024).
